Source: patent US12065471B2, “B*44 restricted peptides for use in immunotherapy against cancers and related methods” (Immatics Biotechnologies GmbH, priority 2018, dated 2024)

molecular target: HLA-B*44:05 (Homo sapiens, UniProt P01889, A223V/A65T/A93T/A95T/D201E/D98Y/E176V/E187L/E204Q/E69K/G107R/H137Y/K202T/L105A/L119I/N104T/N87E/Q56L/Q94N/R106L/R155S/R180D/S101N/S121R/S35A/S48T/T118I/V36M/W191S/Y91S); assay: MHC binding assay (UV-ligand exchange, β2m ELISA, peptide exchange yield); conditions: binding to HLA-B*44:05
Excerpt: Candidate peptides for T cell-based therapies according to the present invention were further tested for their MHC binding capacity (affinity). The individual peptide-MHC complexes were produced by UV-ligand exchange, where a UV-sensitive peptide is cleaved upon UV-irradiation and exchanged with the peptide of interest as analyzed. Only peptide candidates that can effectively bind and stabilize the peptide-receptive MHC molecules prevent dissociation of the MHC complexes. To determine the yield of the exchange reaction, an ELISA was performed based on the detection of the light chain (β2m) of stabilized MHC complexes. The assay was performed as generally described in Rodenko et al. (Rodenko et al., 2006)
96 well MAXISorp plates (NUNC) were coated over night with 2 μg/ml streptavidin in PBS at room temperature, washed 4× and blocked for 1 h at 37° C. in 2% BSA containing blocking buffer. Refolded HLA-A*02:01/MLA-001 monomers served as standards, covering the range of 15-500 ng/ml. Peptide-MHC monomers of the UV-exchange reaction were diluted 100-fold in blocking buffer. Samples were incubated for 1h at 37° C., washed four times, incubated with 2 μg/ml HRP conjugated anti-β2m for 1h at 37° C., washed again and detected with TMB solution that is stopped with […]. Absorption was measured at 450 nm.

Substance	Peptide exchange (MHC class I binding score, peptide exchange yield)
445 (QEVGEITNL; listed as Homo sapiens) [compound 445]	+++ (>50 = +++)
453 (SESKVFQLL; listed as Homo sapiens) [compound 453]	+++ (>50 = +++)
363 (EECDKAFHF; listed as Homo sapiens) [compound 363]	+++ (>50 = +++)
432 (TEENGFWYL; listed as Homo sapiens) [compound 432]	++++ (>75% = ++++)
235 (SESLPRAPL; listed as Homo sapiens) [compound 235]	+++ (>50 = +++)
318 (SESSSFLKV; listed as Homo sapiens) [compound 318]	+++ (>50 = +++)
133 (IEAPKLMVV; listed as Homo sapiens) [compound 133]	+ (>10% = +)
337 (VEVIPEGAML; listed as Homo sapiens) [compound 337]	+++ (>50 = +++)
264 (RELIKAIGL; listed as Homo sapiens) [compound 264]	+++ (>50 = +++)
353 (AETEEGIYW; listed as Homo sapiens) [compound 353]	++++ (>75% = ++++)
396 (MELLFLDTF; listed as Homo sapiens) [compound 396]	++ (>20% = ++)
34 (AEPPILYSEY; listed as Homo sapiens) [compound 34]	++ (>20% = ++)
98 (SEESAGPLL; listed as Homo sapiens) [compound 98]	+++ (>50 = +++)
330 (SEHLFGTSY; listed as Homo sapiens) [compound 330]	+++ (>50 = +++)
204 (YERPTLVEL; listed as Homo sapiens) [compound 204]	+++ (>50 = +++)
430 (RELARVVTL; listed as Homo sapiens) [compound 430]	++++ (>75% = ++++)
360 (DEMENLLTY; listed as Homo sapiens) [compound 360]	++++ (>75% = ++++)
203 (REILHAQTL; listed as Homo sapiens) [compound 203]	+++ (>50 = +++)
157 (SQDVAGTTF; listed as Homo sapiens) [compound 157]	++ (>20% = ++)
192 (LEIMTNLVTL; listed as Homo sapiens) [compound 192]	++++ (>75% = ++++)
221 (KEAFGPQAL; listed as Homo sapiens) [compound 221]	++++ (>75% = ++++)

Substance	Peptide exchange (MHC class I binding score, peptide exchange yield)
302 (EGEDAHLTQY; listed as Homo sapiens) [compound 302]	++ (>20% = ++)
97 (ELVHMINW; listed as Homo sapiens) [compound 97]	++ (>20% = ++)
234 (TEEPQRLFY; listed as Homo sapiens) [compound 234]	+ (>10% = +)
395 (AEDFVWAQW; listed as Homo sapiens) [compound 395]	++++ (>75% = ++++)
121 (YENIPVDKV; listed as Homo sapiens) [compound 121]	+++ (>50 = +++)
135 (QEIDRGQYI; listed as Homo sapiens) [compound 135]	++++ (>75% = ++++)
147 (RMLSFQQMTW; listed as Homo sapiens) [compound 147]	++ (>20% = ++)
361 (EDASLMGLY; listed as Homo sapiens) [compound 361]	++ (>20% = ++)
187 (TEQALRLSV; listed as Homo sapiens) [compound 187]	++++ (>75% = ++++)
439 (VEVGDRTDW; listed as Homo sapiens) [compound 439]	+++ (>50 = +++)
186 (EEIFAHLGL; listed as Homo sapiens) [compound 186]	+++ (>50 = +++)
301 (AERIMFSDL; listed as Homo sapiens) [compound 301]	++++ (>75% = ++++)
193 (RELRPLFDRQW; listed as Homo sapiens) [compound 193]	+++ (>50 = +++)
212 (SEASVYLFRF; listed as Homo sapiens) [compound 212]	+++ (>50 = +++)
168 (EEGPSVPKIY; listed as Homo sapiens) [compound 168]	++ (>20% = ++)
114 (VEVNGVPRW; listed as Homo sapiens) [compound 114]	++++ (>75% = ++++)
198 (REEEANVVL; listed as Homo sapiens) [compound 198]	+++ (>50 = +++)
268 (EDLAVHLY; listed as Homo sapiens) [compound 268]	+ (>10% = +)
158 (VEEERYTGQW; listed as Homo sapiens) [compound 158]	+++ (>50 = +++)
127 (RYFDENIQKFIW; listed as Homo sapiens) [compound 127]	+++ (>50 = +++)
287 (REVSVVDIL; listed as Homo sapiens) [compound 287]	++++ (>75% = ++++)

Substance	Peptide exchange (MHC class I binding score, peptide exchange yield)
320 (AENPLNIFY; listed as Homo sapiens) [compound 320]	++++ (>75% = ++++)
424 (EEHVYESIIRW; listed as Homo sapiens) [compound 424]	+++ (>50 = +++)
323 (SETAVVNVTY; listed as Homo sapiens) [compound 323]	++++ (>75% = ++++)
178 (MEGAALLKIF; listed as Homo sapiens) [compound 178]	+++ (>50 = +++)
225 (VEAATVSKW; listed as Homo sapiens) [compound 225]	+++ (>50 = +++)
119 (VEVKYEGHW; listed as Homo sapiens) [compound 119]	++++ (>75% = ++++)
325 (AEQEIMKKV; listed as Homo sapiens) [compound 325]	++++ (>75% = ++++)
224 (TETDIDREY; listed as Homo sapiens) [compound 224]	++ (>20% = ++)
284 (SQYPHTHTF; listed as Homo sapiens) [compound 284]	+++ (>50 = +++)
148 (KESDAGRYY; listed as Homo sapiens) [compound 148]	+++ (>50 = +++)
199 (AELPENLKALF; listed as Homo sapiens) [compound 199]	+++ (>50 = +++)
371 (NEIGQELTGQEW; listed as Homo sapiens) [compound 371]	++++ (>75% = ++++)
131 (RESHLTEIRQY; listed as Homo sapiens) [compound 131]	++ (>20% = ++)
176 (GETQQHIQL; listed as Homo sapiens) [compound 176]	+++ (>50 = +++)
107 (YQENPRAAW; listed as Homo sapiens) [compound 107]	++ (>20% = ++)
255 (KQWEYNEKLAF; listed as Homo sapiens) [compound 255]	+ (>10% = +)
423 (KEAINLLKNY; listed as Homo sapiens) [compound 423]	+++ (>50 = +++)
160 (AEIATTGQLY; listed as Homo sapiens) [compound 160]	+++ (>50 = +++)
437 (HEDPSGSLHL; listed as Homo sapiens) [compound 437]	+++ (>50 = +++)
416 (DELMRKESQW; listed as Homo sapiens) [compound 416]	+++ (>50 = +++)
150 (SEVFHVSEA; listed as Homo sapiens) [compound 150]	++ (>20% = ++)
